In publication PMC12589613:

Molecular target: MDA5ΔN (residues 287–1025) (human) (UniProt Q9BYX4)
Sequence (Q9BYX4 287-1025, stated change not applied): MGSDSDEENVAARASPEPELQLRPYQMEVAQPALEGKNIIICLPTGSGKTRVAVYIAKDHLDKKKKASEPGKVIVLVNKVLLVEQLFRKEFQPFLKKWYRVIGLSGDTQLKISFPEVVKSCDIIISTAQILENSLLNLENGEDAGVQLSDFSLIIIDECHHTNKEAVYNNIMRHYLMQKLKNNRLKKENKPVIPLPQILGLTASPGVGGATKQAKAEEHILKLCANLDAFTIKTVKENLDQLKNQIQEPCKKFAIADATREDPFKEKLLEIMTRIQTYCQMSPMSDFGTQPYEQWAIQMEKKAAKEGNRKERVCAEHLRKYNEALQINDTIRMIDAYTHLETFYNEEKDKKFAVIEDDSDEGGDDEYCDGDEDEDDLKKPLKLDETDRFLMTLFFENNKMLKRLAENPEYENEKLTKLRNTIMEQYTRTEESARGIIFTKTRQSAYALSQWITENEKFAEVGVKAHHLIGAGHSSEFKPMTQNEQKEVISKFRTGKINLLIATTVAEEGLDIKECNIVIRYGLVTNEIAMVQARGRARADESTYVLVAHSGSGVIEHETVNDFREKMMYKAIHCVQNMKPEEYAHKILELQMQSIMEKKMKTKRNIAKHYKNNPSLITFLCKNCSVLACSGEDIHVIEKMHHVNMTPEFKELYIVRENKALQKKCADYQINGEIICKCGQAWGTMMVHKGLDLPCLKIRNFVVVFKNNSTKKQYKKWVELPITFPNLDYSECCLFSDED

proportion of MDA5ΔN translocation events that were stopped (immobile) on 11.6-kb dsRNA with LGP2(intermut), smTIRF: 23%
B1: LGP2(E116A, E117A, D603A) (natural protein)
chain: MELRSYQWEVIMPALEGKNIIIWLPTGAGKTRAAAYVAKRHLETVDGAKVVVLVNRVHLVTQHGEEFRRMLDGRWTVTTLSGDMGPRAGFGHLARCHDLLICTAELLQMALTSPEAAEHVELTVFSLIVVDECHHTHKDTVYNVIMSQYLELKLQRAQPLPQVLGLTASPGTGGASKLDGAINHVLQLCANLDTWCIMSPQNCCPQLQEHSQQPCKQYNLCHRRSQDPFGDLLKKLMDQIHDHLEMPELSRKFGTQMYEQQVVKLSEAAALAGLQEQRVYALHLRRYNDALLIHDTVRAVDALAALQDFYHREHVTKTQILCAERRLLALFDDRKNELAHLATHGPENPKLEMLEKILQRQFSSSNSPRGIIFTRTRQSAHSLLLWLQQQQGLQTVDIRAQLLIGAGNSSQSTHMTQRDQQEVIQKFQDGTLNLLVATSVAEEGLDIPHCNVVVRYGLLTNEISMVQARGRARADQSVYAFVATEGSRELKRELINEALETLMEQAVAAVQKMDQAEYQAKIRDLQQAALTKRAAQAAQRENQRQQFPVEHVQLLCINCMVAVGHGSDLRKVEGTHHVNVNPNFSNYYNVSRDPVVINKVFKAWKPGGVISCRNCGEVWGLQMIYKSVKLPVLKVRSMLLETPQGRIQAKKWSRVPFSVPDFDFLQHCAENLSDLSLD
